Measured values published in the nanobody polyreactivity screen of Harvey et al. (2022).

Experiment: yeast display, Sf9 membrane polyspecificity reagent, FACS + sequencing; frameworks hold sequencing errors
In short: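 Galactose-induced (36–48 hours) yeast carrying a synthetic nanobody display library were exposed to 10% biotinylated, detergent-solubilized Sf9 membrane reagent at 4 °C for 1 hour. FACS followed streptavidin microbead enrichment, using low and high (top ~1%) gates for expression (anti-HA) and reagent binding (streptavidin). Colony PCR, MiSeq 2 × 250 sequencing and CDR-length filtering followed. Labels for polyreactivity reflect the gate of origin.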

Row | Sequence | polyreactivity (PSR sort gate)
1 | QVQLLESGGGLVQAGGSLRLSCAASGGTFYSYAMGWYRQAPGKERELVATITRRSGSTYYADSVKGRFTISRDNAKNTVYLQMNSLKPEDTAVYYCAATKYKLLFIHFRYDYWGQGTQVTVSS | high polyreactivity
2 | QVQLLESGGGLVQAGGSLRLSCAASGITFSQYAMGWYRQAPGKERELVAAISWSGGSTYYANSVKGRFTISRDNAKNTVYLQMNSLKPEDTAVYYCAAVPVHTGSLYWGFTTGYDYWGQGTQVTVSS | low polyreactivity
3 | QVQLLESGGGLVQAGGSLRLSCAASGRIFDPYAMGWYRQAPGKERELVAAITGSGDGTYYADTVKGRYTISRYNAKNTVYLQMNRLKPEDTAVYYCAAVGRDRFVIHDYWGQGTQVTVSS | low polyreactivity
4 | QVQLLESGGGLVQAGGSLRLSCAASGRIFGYYTMGWYRQAPGKERELVAGITRRGGRTYYADSVKGRFTISRDNAKNTVYLEMNSLKPEDTAGYYCAVRSGVNFYYWGQGTQVTVSS | high polyreactivity
5 | QVQLLESGGGLVQAGGSLRLSCAASGRIFSENAMGWYRQAPGKERELVAAITGNGGDTYYADSVKGRFTISRDNAMNTVYLQMNSLKPEDTAVYYSAAETGGLGGEYWGQGTHVTVSS | low polyreactivity
6 | QVQLLESGGGLVQAGGSLRLSCAASGRIFVYNVMGWSRQAPGKERELVADINGSGGGTIFADSVKGRFTISRDNAKNNVYFQMNSLKPVDTAVYYCNADSYEYHVPYYDYRYDYWGHGTQVTVSS | low polyreactivity
7 | QVQLLESGGGLVQAGGSLRLSCAASGRIYLGYALGWYRQAPGKERELVAAITSSGGYTYYADSVKGRFTISLDNAKNTVYLQMNSLKPEDTAVYYCNVYRFGWWYTNDYWGQGTQVTVSS | high polyreactivity
8 | QVQLLESGGGLVQAGGSLRLSCAASGRMFGSNAMGWYRQAPGKERELVAAITRGGSTNYADSVKGRFTISRDNAKNTVYFQMNSLKPEDTAVYYCAVRWYRKYNYWGQGTQVTVSS | high polyreactivity
9 | QVQLLESGGGLVQAGGSLRLSCAASGSIFLFYDMGLYRHAPGKERELVATITSGTNTYADSVKGRFTISRDNAKNTGYLQMNSLKPEDTAVYSCAAGFSTASQLDYWGQVTQVTVSS | low polyreactivity
10 | QVQLLESGGGLVQAGGSLRLSCAASGSIFPAYSMGWYRQAPGKERELVASITGSGGSTYYADSVKGRFTISRDNAKNSVYLQMTSLKPEETAVYYCNARYYVYSATVDRYYHFYYWGQGTQVTVSS | high polyreactivity
11 | QVQLLESGGGLVQAGGSLRLSCAASGSIFYYYTMGWYRQAPGKETELVAAISRGGSTNYADSVKGRFTISRDNAKNTVYLQMNSLKPEDTAVYYCAADRLSGRYAYRFDYWGQGTQVTVSS | low polyreactivity
12 | QVQLLESGGGLVQAGGSLRLSCAASGSIIRQNGMVWYRPAPGKEREFVAAITRTGGSTYYADSVKGRFTISRDNAKNTVYLHMNSLKPEDTAGYYCAARGGYRYTRYDYWGQGTQVTVSS | high polyreactivity
13 | QVQLLESGGGLVQAGGSLRLSCAASGSPFYYYARGWYRQAPGKERELVARITYGGSRTYYADSVKGRFTISRDNAKYTVYLQMNSLKPEDTAVYYCNAGRVLYGYYLYDYWGQGTQLTVSS | high polyreactivity
14 | QVQLLESGGGLVQAGGSLRLSCAASGSTFDRNTMGWYRQAPGTVRELVAAITWSSGSTYYADSVKGRFTISRDNAKNTVYLQMNSLKPEDTAVYYCAADRIRYRSRHKYGYWVQGTQVTVSS | low polyreactivity
15 | QVQLLESGGGLVQAGGSLRLSCAASGSTFDYKSMGWYRQAPGKERELVATINDSGGNTYYADSVKGRFTISRDNAKNTVYLQMNSLKPEDTAVYYCATVGYLYTPVVVTWWDWGDYWGQGTQVTVSS | low polyreactivity
16 | QVQLLESGGGLVQAGGSLRLSCAASGSTFRWYAMGWYRQAPGRERELVAAITWSGGRTYYADSVKGRFTISRDNAKNTVYLQMNSLKPEYTAVYYCNAVYYHVVDFDYWGQGTQVTVSS | high polyreactivity
17 | QVQLLESGGGLVQAGGSLRLSCAASGSTFTYNAMGWYRQAPGKERELVAAISSSGGSTYYADSVKGRFTISRDNAKNTVYLQMTSLNPEDTAVYYCAKRWLYTSAFRKMDYWGQGTQVTVSS | high polyreactivity
18 | QVQLLESGGGLVQAGGSLRLSCAASVFTFYGYAMGWYRQAPGKERELVAAISRRGGSTYYADSVKGRFTISRDNAKNTVYLQMNSLKPEDTAVYYCATDRAYYHSYGRFGYWGQGTQVTVSS | high polyreactivity
19 | QVQLLESGGGLVQAGGSLRLSCAPSGFTYRYNAMVWYRQAPGIERELVAAISSRGGSTYYADSVKGRFTISRDNAKNTVYFQMNSLKPEDTGVYYCARDDWVYTNVEMDYWGQGTQVTVSS | high polyreactivity
20 | QVQLLESGGGLVQAGGSLRLSCAPSGRTFARYDMAWYTQAPGKERELVAVISRTGSTYYADSVKGSFTISRDNEKITVYLLMNSLKPEDTAVYYCATVYVYWGQGTQVTVSS | high polyreactivity
21 | QVQLLESGGGLVQAGGSLRLSSAASGSILDHYAMGWYRQAPGNEREFVAAISIRGGSTYYADSVKGRFTISRDNAKNTVFLQMNSLKPEDNAVYYCAATAQYGRDSWSSYRMFPPYDYWGQGTEVTVSS | low polyreactivity

Row | Sequence | polyreactivity (PSR sort gate)
22 | QVQLLESGGGLVQAGGSLRLSSMASASILGDRMSWYRQAPGKEHELVATIYDGGISYYADSMKGRFTISRDNAKNTVYLQMNSLRPEDTAVFFCGASFEGYRFHVYCGQGTQVTVSS | low polyreactivity
23 | QVQLLESGGGLVQAGGSLRLTCGASGITFSVNTMGWYRQAPGKDRELVAAFTSAGGTYYADSVKGRFTISRDTAKNTVYFQMISQKPEDTAVYYCATPYDIQWASESHDYWGQGTQVTVSS | low polyreactivity
24 | QVQLLESGGGLVQAGRSLCLSCAASGSIIINAMGWYRQAPGKERELVATIRWRGGTTYYADSVKGRFTISRDNAKNTVYLQRNSLKPEDTAVYYCAADRSYYPDPRTTYGYNYWGQGTQVTVSS | low polyreactivity
25 | QVQLLESGGGLVQAGVSHRLSCASSGFIFTYYAMGWYRQAPGKESELVASISTYGGNTNYADSVKGRFTISRDNAKNTVYIQMNSLIPEDTAVYYCAARIGNQYHTGYPTAGRKYGYWGQGTQVSVSS | high polyreactivity
26 | QVQLLESGGGLVQARGSLRLSCAASGITFSRYAMGWYRQAPGKERELVAAITRRGGNTYYADSVKGSFTISRVYAKNTVYLQMNSLKPEDTAVYYCAAGYTYYRGDYWGQGTQVTVSS | high polyreactivity
27 | QVQLLESGGGLVQPGGSLRLSCAASGRIFRHSAMGWYRQAPGKERELVAAISGGGGRTYYADSVKGRFTISRDNAKLSVDLQMNSLKPEDTAVYYCAAYRSRHYYYWGHGTQVTVSS | high polyreactivity
28 | QVQLLESGGGLVQPGGSLRLSCAASGSIFGRNVMGWYRQAPGKERELVAAISSSGGRTYYADSVKGRFTISRDNAKNNVYLQMNCLKPEDTAVYYCADRYGIKYYYWGQGTQVTVSS | high polyreactivity
29 | QVQLLESGGVLVQAGGSLRLSCAASGFTFWYYAMGWYRQAPGKQRELVATITWNVGSTYYADSVKGRFTISRDNAKNTVYIQMNTLKPEDTAVYYCNKSYSRSSYWQYYYWGQGTQVTVSS | low polyreactivity
30 | QVQLLESGRGLVQAGGTLRLSCAPSGRTFSVNAMGWYRQAPGKERELVAAISWDGGSTYYADSVKVRFTISRDNAKNTVYLQMNSLKQEDTAVYYCNKDLYYAYDYWGQGTQVTVSS | low polyreactivity
31 | QVQLLESGVGKVQAGGRLRLSCAASGSIFLIYAMGWYRQAPGKESELVAAISSGGSKYYADSVNGRFTISRDNAKNTVYLQMNSVKPEDTAVYYCATYSTCVAYHLYYWGQGTQVSVSS | low polyreactivity
32 | QVQLLESWGGLVQAGGSLRLSCAASGRTSTRNAMGWYRQAPGNERELVAAISWSGGRTHYADSVKGRFTISRDNAKNTVYLQMNSLKPEDTAVYYCAAAYTGGQKYYSWGQGTEVTVSS | high polyreactivity
33 | QVQLLETGGGLVQAGGSLRLSCAASGITFKYYSMGWYRQAPGKERELFATITKRGGSTYYADSVKGRFTISRDNAKNTVYLQMNSLKPVDTAVYYCAAEILIRFWGVQWGGEYWGQGTQVTVSS | high polyreactivity
34 | QVQLLETGGVLVQAGGSLRLSCAASGFIFGINAMGWYRQAPGKERELVATITSGGGTNYADSVKGRFTISRDNAKINVYLQMNSLKPEDSAVYYCNAQIAWATYEGDYWGQGTQVTVSS | low polyreactivity
35 | QVQLPGSGGGLVQAGGSLRLSCAASGYIFQNVPMGWTRQAPGKERDLVAGIDNGTSTNYADSVNGRFTISRDNAKNTVYLQMNSLKPEDTAVYYCAAAGQADDTLGYWGQGTQVTVSS | low polyreactivity
36 | QVQLQDSGGGLVQAGGSLRLSCAASGSISIYGYMGWYRQAPGNERELVAAITAGGSTYYADSVKGRFTISRDNAKNTVYLLMKSLKPEDTAVYYCAPYEQRVYDLHYWGQGTQVTVSS | high polyreactivity
37 | QVQLQDSGGGLVQAGGSLRLSCAASGYIFGSGSMGWFRQAPGKERELVATINNGSSTYYADSVKGRFTISRDNAKNTVYLQMNSLKPEDTAVYYCGVFLYRLTFFYYWGQGNQVTVSS | high polyreactivity
38 | QVQLQDSGGGLVQAGGSLRLSCAASGYIFGSGSMGWFRQAPGKERELVATINNGSSTYYADSVKGRFTISRDNAKNTVYLQMNSLKPEDTAVYYCNRVGTYHSYDYWGQGTQVTVSS | high polyreactivity
39 | QVQLQDSGGGLVQARGSLRPSCAASGTISDGVPMGWYRQAPGEVRELVATTVLGATTNYADSVKGRFTISRGNAKNTVYLQMNSLKPEETAVYYCAAPLRYDKGFSYWGQGTQVTVSS | low polyreactivity
40 | QVQLQECGGGLEQAGGSLRLSCAASGTFSNSVKWLYCQARGKEREFVATIGVGGSTNYADSVKGRFTISRDNAKNTVYLQMNSLKPEDTAVYHCAAYGAASNFHYYRGQGTQVTVSS | low polyreactivity
41 | QVQLQECGGGLVQAGGSLRLSCAASGNIFDADIMGWYRQAPGKERELVASVSDGGSTNYADSVKGRFTISRDNAKNTVYLQMNSLKPEDTAVYYCAAIVYPDILTYFDYDYDYFYWGQGTQVTVGS | low polyreactivity
